Assay results taken from the Immune Epitope Database (IEDB).

Assays:
HLA-C*08:02 = test: IEDB peptide-MHC binding, purified MHC/direct/fluorescence; filed as Kd, often an IC50 or EC50 that approximates it; ≥ and ≤ were set here for values at or beyond the usual limits of such assays
HLA-C*05:01 = test: as above; details: source organism: human gammaherpesvirus 4
HLA-A*26:01 = test: as above
HLA-A*26:02 = test: as above; details: source organism: Bacillus anthracis str. A0465
HLA-B*46:01 = test: IEDB peptide-MHC binding, purified MHC/competitive/fluorescence; filed as Kd, often an IC50 or EC50 that approximates it; ≥ and ≤ were set here for values at or beyond the usual limits of such assays; details: source organism: Bacillus anthracis str. A2012
HLA-B*07:02 [1] = test: IEDB peptide-MHC binding, purified MHC/direct/fluorescence; filed as Kd, often an IC50 or EC50 that approximates it; ≥ and ≤ were set here for values at or beyond the usual limits of such assays
HLA-A*03:01 [2] = test: as above
HLA-B*40:01 = test: as above
HLA-A*01:01 = test: as above
HLA-A*11:01 [3] = test: as above
HLA-B*73:01 = test: as above
HLA-B*58:01 = test: as above
HLA-B*15:01 = test: as above
HLA-B*08:01 = test: as above
HLA-B*27:05 [4] = test: as above
HLA-B*44:02 = test: as above
HLA-A*02:01 [5] = test: as above
HLA-A*31:01 [6] = test: as above; details: source organism: Brucella abortus
HLA-A*69:01 = test: as above
HLA-B*07:02 [7] = test: IEDB peptide-MHC binding, purified MHC/competitive/radioactivity; filed as Kd, often an IC50 or EC50 that approximates it; ≥ and ≤ were set here for values at or beyond the usual limits of such assays; details: source organism: Vaccinia virus Copenhagen
HLA-A*03:01 [8] = test: as above; details: source organism: Vaccinia virus Copenhagen
HLA-B*53:01 = test: as above; details: source organism: Vaccinia virus Copenhagen
HLA-A*11:01 [9] = test: as above; details: source organism: Vaccinia virus Copenhagen
HLA-B*54:01 = test: as above; details: source organism: Vaccinia virus Copenhagen
HLA-B*51:01 = test: as above; details: source organism: Vaccinia virus Copenhagen
HLA-A*31:01 [10] = test: as above; details: source organism: Vaccinia virus Copenhagen
HLA-B*35:01 = test: as above; details: source organism: Vaccinia virus Copenhagen
HLA-A*33:01 = test: as above; details: source organism: Vaccinia virus Copenhagen
HLA-A*68:01 = test: as above; details: source organism: Vaccinia virus Copenhagen
HLA-A*02:01 [11] = test: IEDB peptide-MHC binding, purified MHC/competitive/fluorescence; filed as Kd, often an IC50 or EC50 that approximates it; ≥ and ≤ were set here for values at or beyond the usual limits of such assays
HLA-A*30:01 = test: IEDB peptide-MHC binding, purified MHC/direct/fluorescence; filed as Kd, often an IC50 or EC50 that approximates it; ≥ and ≤ were set here for values at or beyond the usual limits of such assays; details: source organism: Vibrio parahaemolyticus
HLA-C*15:02 = test: as above
HLA-A*02:02 = test: IEDB peptide-MHC binding, purified MHC/competitive/radioactivity; filed as Kd, often an IC50 or EC50 that approximates it; ≥ and ≤ were set here for values at or beyond the usual limits of such assays; details: source organism: Vaccinia virus WR
HLA-A*02:03 = test: as above; details: source organism: Vaccinia virus WR
HLA-A*02:06 = test: as above; details: source organism: Vaccinia virus WR
HLA-B*48:01 = test: IEDB peptide-MHC binding, purified MHC/direct/fluorescence; filed as Kd, often an IC50 or EC50 that approximates it; ≥ and ≤ were set here for values at or beyond the usual limits of such assays
HLA-B*39:01 = test: IEDB peptide-MHC binding, purified MHC/competitive/fluorescence; filed as Kd, often an IC50 or EC50 that approximates it; ≥ and ≤ were set here for values at or beyond the usual limits of such assays; details: source organism: Escherichia coli B171
HLA-B*27:05 [12] = test: as above; details: source organism: Escherichia coli B171
HLA-A*26:03 = test: IEDB peptide-MHC binding, purified MHC/direct/fluorescence; filed as Kd, often an IC50 or EC50 that approximates it; ≥ and ≤ were set here for values at or beyond the usual limits of such assays; details: source organism: Vibrio parahaemolyticus AQ3810
HLA-C*03:03 = test: as above; details: source organism: Burkholderia mallei SAVP1
HLA-A*02:12 = test: IEDB peptide-MHC binding, purified MHC/competitive/fluorescence; filed as Kd, often an IC50 or EC50 that approximates it; ≥ and ≤ were set here for values at or beyond the usual limits of such assays; details: source organism: Burkholderia mallei SAVP1
[13] = source organism: Brucella abortus
[14] = source organism: Vibrio parahaemolyticus
[15] = source organism: Vaccinia virus Copenhagen
[16] = source organism: Listeria monocytogenes
[17] = source organism: Bacillus anthracis
[18] = source organism: Burkholderia mallei SAVP1

ASDYSQGAF
Kd (HLA-C*08:02; source organism: human gammaherpesvirus 4): ≤ 0.001 µM
Kd (HLA-C*05:01): ≤ 0.001 µM

FFLFPMAAY
Kd (HLA-A*26:01; source organism: Bacillus anthracis str. A0465): 0.49 µM
Kd (HLA-A*26:02): 0.002 µM
Kd (HLA-B*46:01): 0.0982 µM

GRKTPLLCF
Kd (HLA-B*07:02 [1]; [13]): ≥ 20 µM
Kd (HLA-A*26:01; [13]): ≥ 20 µM
Kd (HLA-A*03:01 [2]; [13]): ≥ 20 µM
Kd (HLA-B*40:01; [13]): ≥ 20 µM
Kd (HLA-A*01:01; [13]): ≥ 20 µM
Kd (HLA-A*11:01 [3]; [13]): ≥ 20 µM
Kd (HLA-B*73:01; source organism: Brucella suis 1330): ≥ 20 µM
Kd (HLA-B*58:01; [13]): ≥ 20 µM
Kd (HLA-B*15:01; [13]): ≥ 20 µM
Kd (HLA-B*08:01; [13]): ≥ 20 µM
Kd (HLA-B*27:05 [4]; source organism: Brucella melitensis): 0.939 µM
Kd (HLA-B*44:02; [13]): ≥ 20 µM
Kd (HLA-A*02:01 [5]; [13]): ≥ 20 µM
Kd (HLA-A*31:01 [6]): ≥ 20 µM
Kd (HLA-A*69:01; [13]): ≥ 20 µM

ILDDNLYKV
Kd (HLA-C*08:02; source organism: Variola virus): 0.379 µM
Kd (HLA-B*07:02 [7]): ≥ 77.5 µM
Kd (HLA-A*03:01 [8]): 12.3 µM
Kd (HLA-B*53:01): ≥ 78.2 µM
Kd (HLA-A*11:01 [9]): 2.76 µM
Kd (HLA-B*54:01): ≥ 78.1 µM
Kd (HLA-B*51:01): ≥ 77.5 µM
Kd (HLA-A*31:01 [10]): ≥ 54 µM
Kd (HLA-B*35:01): ≥ 77.4 µM
Kd (HLA-A*33:01): ≥ 77.7 µM
Kd (HLA-A*68:01): ≥ 77.7 µM
Kd (HLA-A*02:01 [11]; source organism: Variola virus): 0.0007 µM

IRSCWRYRK
Kd (HLA-B*07:02 [1]; [14]): ≥ 20 µM
Kd (HLA-A*26:01; [14]): ≥ 20 µM
Kd (HLA-A*03:01 [2]; [14]): 7.86 µM
Kd (HLA-B*40:01; [14]): ≥ 20 µM
Kd (HLA-A*30:01): 0.516 µM
Kd (HLA-A*01:01; [14]): ≥ 20 µM
Kd (HLA-A*11:01 [3]; [14]): 2.14 µM
Kd (HLA-B*73:01; source organism: Vibrio parahaemolyticus AQ3810): 3.88 µM
Kd (HLA-B*58:01; [14]): ≥ 20 µM
Kd (HLA-B*15:01; [14]): ≥ 20 µM
Kd (HLA-B*08:01; [14]): ≥ 20 µM
Kd (HLA-B*27:05 [4]; [14]): 0.0748 µM
Kd (HLA-B*44:02; [14]): ≥ 20 µM
Kd (HLA-A*02:01 [5]; [14]): ≥ 20 µM
Kd (HLA-A*69:01; [14]): ≥ 20 µM

KLFTHDIML
Kd (HLA-C*15:02; [15]): ≥ 20 µM
Kd (HLA-A*02:02): 0.00105 µM
Kd (HLA-A*02:03): 0.00295 µM
Kd (HLA-A*02:06): 0.00474 µM
Kd (HLA-A*02:01 [11]; [15]): 0.0005 µM

KRYKQMCTK
Kd (HLA-B*48:01; [16]): ≥ 20 µM
Kd (HLA-B*73:01; source organism: Listeria monocytogenes serotype 4b str. H7858): ≥ 20 µM
Kd (HLA-B*27:05 [4]; [16]): 0.177 µM

QTNLYNLLY
Kd (HLA-B*39:01): ≥ 20 µM
Kd (HLA-B*27:05 [12]): ≥ 20 µM
Kd (HLA-A*02:01 [11]; source organism: Escherichia coli B171): 4 µM

QTWHGDAPY
Kd (HLA-A*26:03): 0.277 µM

RRMMMRITE
Kd (HLA-B*48:01; [17]): ≥ 20 µM
Kd (HLA-B*73:01; source organism: Bacillus cereus B4264): 1.15 µM
Kd (HLA-B*27:05 [4]; [17]): 0.28 µM

TSYPTAVQF
Kd (HLA-C*15:02; source organism: Pseudomonas aeruginosa PACS2): 0.106 µM

YLDDPDLKY
Kd (HLA-A*01:01; source organism: Homo sapiens): 0.0668 µM
Kd (HLA-A*11:01 [3]; source organism: Homo sapiens): ≥ 24.4 µM
Kd (HLA-C*08:02; source organism: Xenopus laevis): ≥ 20 µM
Kd (HLA-B*15:01; source organism: Homo sapiens): 0.437 µM
Kd (HLA-A*02:01 [5]; source organism: Homo sapiens): 3.36 µM
Kd (HLA-A*69:01; source organism: Homo sapiens): 18 µM

YVTPRALEL
Kd (HLA-C*08:02; [18]): 0.122 µM
Kd (HLA-C*03:03): ≤ 0.001 µM
Kd (HLA-A*02:12): ≥ 10 µM
Kd (HLA-A*02:01 [11]; [18]): 1.76 µM
